In patent publication US20250313615A1 (ANNEXON, published 2025):

Target: T1, complement factor C1q (Homo sapiens, UniProt P02745 23-245; P02746 28-253; P02747 29-245)
T1 construct: also called soluble C1q
Assay: in vivo, phase 1b interim analysis in four lupus nephritis patients; pharmacodynamic read-out

T1 sequence (P02745 23-245 limits assumed, chain 1 of 3): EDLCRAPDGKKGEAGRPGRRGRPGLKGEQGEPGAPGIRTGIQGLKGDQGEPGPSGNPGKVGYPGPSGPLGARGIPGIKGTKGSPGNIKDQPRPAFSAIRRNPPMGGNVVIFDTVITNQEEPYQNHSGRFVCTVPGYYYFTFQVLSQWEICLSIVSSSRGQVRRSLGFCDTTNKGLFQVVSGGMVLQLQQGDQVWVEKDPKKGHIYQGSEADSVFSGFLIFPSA
T1 sequence (P02746 28-253 limits assumed, chain 2 of 3): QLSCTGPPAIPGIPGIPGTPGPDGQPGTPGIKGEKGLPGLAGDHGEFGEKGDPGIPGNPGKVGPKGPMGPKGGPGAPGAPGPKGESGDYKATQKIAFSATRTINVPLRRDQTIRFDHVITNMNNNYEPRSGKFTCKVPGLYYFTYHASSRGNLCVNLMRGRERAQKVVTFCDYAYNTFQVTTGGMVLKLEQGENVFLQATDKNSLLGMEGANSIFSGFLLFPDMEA
T1 sequence (P02747 29-245 limits assumed, chain 3 of 3): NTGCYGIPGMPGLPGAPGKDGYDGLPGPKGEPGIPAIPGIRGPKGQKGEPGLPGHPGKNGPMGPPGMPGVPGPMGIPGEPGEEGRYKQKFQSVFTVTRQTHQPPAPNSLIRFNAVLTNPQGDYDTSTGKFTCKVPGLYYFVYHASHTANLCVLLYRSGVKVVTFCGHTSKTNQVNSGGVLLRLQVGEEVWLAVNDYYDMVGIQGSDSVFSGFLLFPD

binding result: binds
B1: FabA (Fab)
heavy: QVQLVQSGAELKKPGASVKVSCKSSGYHFTSYWMHWVKQAPGQGLEWIGVIHPNSGSINYNEKFESRVTITVDKSTSTAYMELSSLRSEDTAVYYCAGERDSTEVLPMDYWGQGTTVTVSSASTKGPSVFPLAPSSKSTSGGTAALGCLVKDYFPEPVTVSWNSGALTSGVHTFPAVLQSSGLYSLSSVVTVPSSSLGTQTYICNVNHKPSNTKVDKKVEPKSCDKTHT
light: DVQITQSPSSLSASLGERATINCRASKSINKYLAWYQQKPGKAPKLLIYSGSTLQSGIPARFSGSGSGTDFTLTISSLEPEDFAMYYCQQHNEYPLTFGQGTKLEIKRTVAAPSVFIFPPSDEQLKSGTASVVCLLNNFYPREAKVQWKVDNALQSGNSQESVTEQDSKDSTYSLSSTLTLSKADYEKHKVYACEVTHQGLSSPVTKSFNRGEC
notes: also called anti-C1q Fab; anti-C1q antibody Fab fragment
